These results are taken from US20110318348A1 (NATIONAL RESEARCH COUNCIL OF CANADA, published 2011).

Test [1] deals with T1, bovine serum albumin (bovine, UniProt P02769 25-607).
T1 construct: also called BSA
Nature of the test: SPR (Biacore 3000), BSA immobilized on CM5; estimated, no 1:1 fit.
Method: (§1) 1700 RUs of BSA (Sigma) were immobilized on research grade CM5-sensorchip (BIACORE). Ethanolamine blocked surface was used as a reference. Immobilizations were carried out at the protein concentrations of 50 μg/ml in 10 mM acetate pH4.5 using amine coupling kit supplied by the manufacturer. Antibodies were passed through Superdex 75 (GE Healthcare) column to separate monomer prior to BIACORE analysis.
(§2) In all instances, analyses were carried out at 25° C. in HBS-E buffer (10 mM HEPES, 150 mM NaCl and 3 mM EDTA, pH7.4) supplemented with 0.005% surfactant P20 at a flow rate of 20 ul/min. The surfaces were regenerated with 100 mM HCl (3 seconds). Data were analyzed with BIAevaluation 4.1 software.

Test [2] concerns the target T1, bovine serum albumin. Nature of the test: SPR (Biacore 3000), BSA immobilized on CM5; profiles did not fit a 1:1 model. (Surface plasmon resonance follows binding to a sensor surface in real time, without labels.)
Method: as §1, §2
For test [3], the target named is T1, bovine serum albumin. Nature of the test: SPR (Biacore 3000), BSA immobilized on CM5.
Test [4] addresses T1, bovine serum albumin. Nature of the test: SPR (Biacore 3000), BSA immobilized on CM5, extended dissociation.
For test [5], the target named is T1, bovine serum albumin. Nature of the test: SPR (Biacore 3000), BSA immobilized on CM5, calculated from ka and kd.
In test [6] the target is T1, bovine serum albumin. Nature of the test: SPR (Biacore 3000), BSA immobilized on CM5, 1:1 model; SE 3.2 × 10^3 in r12c3.
The target of test [7] is T1, bovine serum albumin. Nature of the test: SPR (Biacore 3000), BSA immobilized on CM5, 4 h dissociation time; SE 3 × 10^-8 in r12c4.
The target in test [8] is T1, bovine serum albumin. Nature of the test: SPR (Biacore 3000), BSA immobilized on CM5, 1:1 model; SE 2.2 × 10^4 in r14c3.
Method: as §1, §2
For test [9], the target named is T1, bovine serum albumin. Nature of the test: SPR (Biacore 3000), BSA immobilized on CM5, 1:1 model; SE 1.1 × 10^-8 in r14c5.
Method: as §1, §2
The target of test [10] is T1, bovine serum albumin. Nature of the test: SPR (Biacore 3000), BSA immobilized on CM5, 1:1 model; SE 5.4 × 10^-3 in r14c4.
Method: as §1, §2

The Kd is the equilibrium constant for the complex coming apart. For orientation: koff means the first-order rate constant of dissociation. Low readings indicate slow dissociation, high ones fast dissociation. In general, kon refers to the rate constant with which the complex forms. A lower kon goes with slow association.

T1 sequence (P02769 25-607 limits assumed): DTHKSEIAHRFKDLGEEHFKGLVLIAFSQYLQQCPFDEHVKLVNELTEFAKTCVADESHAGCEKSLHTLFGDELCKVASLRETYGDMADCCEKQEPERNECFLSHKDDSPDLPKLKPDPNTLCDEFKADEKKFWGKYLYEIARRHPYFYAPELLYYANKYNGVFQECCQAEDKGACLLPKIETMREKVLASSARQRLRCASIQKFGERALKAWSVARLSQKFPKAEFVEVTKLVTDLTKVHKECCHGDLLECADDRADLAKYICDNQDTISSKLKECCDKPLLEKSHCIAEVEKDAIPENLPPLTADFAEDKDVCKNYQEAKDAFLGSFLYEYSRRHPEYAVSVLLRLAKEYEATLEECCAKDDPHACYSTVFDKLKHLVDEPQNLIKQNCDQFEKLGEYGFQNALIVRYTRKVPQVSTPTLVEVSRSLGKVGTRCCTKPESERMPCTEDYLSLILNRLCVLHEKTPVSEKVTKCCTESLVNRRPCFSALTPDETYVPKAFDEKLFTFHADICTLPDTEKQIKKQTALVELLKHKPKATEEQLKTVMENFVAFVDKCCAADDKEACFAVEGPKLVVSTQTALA

B1: sdAb BSA8 (VHH)
VHH: QVKLEESGGGLAQAGGSLRLSCAASERTFIRYTIGWFRQAPGKEREFVGRVNWSGGDTYYADSVKGRFTISRDNAKTTVTLQMSSLKPEDTAVYSCAASPKWSEIPREYIYWGPGTQVTVSS
Consider B1, for which, in the test with bovine serum albumin [1], the Kd was around 100 nM. This molecule also yielded a koff with bovine serum albumin [2] of 0.005 s⁻¹.

B2: sdAb BSA12 (VHH, part only)
VHH: QVKLEESGGGLVQVGDSLRLSCAASGRTFSNYTMAWFRQFPGKEREFVAVVSRGGGATDYADSVKGRFTISRDNAKNTMYLQMNSLKTDTAVYYCAAGTDLSYYYSTKKWAYWGQGTQVTVSS
modifications: c-Myc and 6xHis tags
B2 displayed a binding capacity (RU) in the test with bovine serum albumin [3] of 150 RU. The koff in the test with bovine serum albumin [4] was determined as 1e-05 s⁻¹; with bovine serum albumin [7], 9e-06 s⁻¹. Moreover, the dissociation constant (Kd) with bovine serum albumin [5] was 0.004 nM. The molecule further displayed a kon with bovine serum albumin [6] of 2.5e+06 M⁻¹ s⁻¹.

B3: sdAb BSA16 (VHH)
VHH: QVKLEESGGGLVQAGGSLRLSCAPSGRTFRTWRMGWFRQAPGKEREFVAAINLNTGNTYYVDSVKGRFTISGDYAKNTLYLQMNSLKPEDTAVYFCAARSPDSDYVPLSSIDYQYWGQGTQVTVSS
B3 registered an association rate constant (kon) with bovine serum albumin [8] of 1e+06 M⁻¹ s⁻¹. Also, the Kd with bovine serum albumin [9] was found to be 280 nM. This molecule also registered a dissociation rate constant (koff) with bovine serum albumin [10] of 0.27 s⁻¹.
